{
  "source": "paper PMC10774645",
  "about": "“Characterization and stabilization of GluLm and its application to deglycosylate dietary flavonoids and lignans” (Applied Microbiology and Biotechnology, 2024)",
  "molecules": {"B1": {"name": "GluLm (Limosilactobacillus mucosae) (protein)", "chain": "MTKVDLNFVEGLTLEERADLVSGTDFWFTAKVSGMDPMLMTDGPSGLRKQVNVHSAMDQSIEAVCFPCSALTASSFDDQMLEKLGEQLGTAARAEKIGVLLGPGVNIKRSPLAGRNFEYFSEDPLLAGRMGTAYVKGVQSTGVGVSVKHFATNNREDQRFTNSSDVDERTLREIYLAQFERIVKQAHPATIMCSYNKLNGVQVSQNQRLLTNILRDEWGYQGLVMSDWGAVVDHTAAIKAGLDLEMPGKGDASKEEIIQAVKEGRLQESTLNRSALRVLEMAERYGHPKTPAPAYDMEAQHEFARQLADDSIVLLKNEKQELPLSDSAKLAVIGELAEKPRFEGGGSSHVNAHRVVTPKEVMPENAVYAQGYRLDSDQPDEQLTAEAMALAKNSDQVVFFAGFPEAMESEGFDKHSISLPANQNKLLEQLLTVNPHVVVVLQNGSAVEMPWEPETPAIVETYLAGEAVGEATWDILSGQVNPSGKLSETFPKRLADNPTYPTFGKDRRHEVYREGILMGYRYYDAKQLAVRFPFGHGLSYTTFAYQNLTIRENSDDVTVSFDLENTGSQAGKEVAQVYVANHASQTIMPIDELRDFVKVELQPGETKHLTLKLSRRAFAWYNSETETWEADNGQYEILVGSSSRDIRLRQEFELTIGTNPLGKITGETYVGELMENADERIKQIIAEMGLTATFDKFMSPELAPIFANIPLRSLTMADVDAETVHELLQKLNELD", "notes": "full-length, C-terminal poly-His tag (pLATE31), expressed in E. coli BL21(DE3), GraviTrap purified, 81 kDa"}},
  "key": {"GluLm": {"target": "T1, GluLm (Limosilactobacillus mucosae, UniProt A0A508YIL6)", "T1 construct": "gene bglB; full-length, C-terminal poly-His tag (pLATE31), expressed in E. coli BL21(DE3), GraviTrap purified, 81 kDa", "T1 sequence (A0A508YIL6 1-735)": "B1 chain", "assay": "inhibition of pNPG hydrolysis, p-nitrophenol release at […] nm", "assay_type": "biochemical", "conditions": "100000 µM; free enzyme; 1 mmol L^−1 pNPG; 100 mmol L^−1 sodium phosphate pH 6.5; 37°C; 5 min"}, "purified protein [1]": {"substrate": "C[C@@H]1O[C@@H](Oc2ccc([N+](=O)[O-])cc2)[C@@H](O)[C@H](O)[C@@H]1O", "assay": "purified protein", "assay_type": "biochemical, Limosilactobacillus mucosae", "conditions": "free enzyme; 0.1 to 10 mmol L^−1 substrate; pH and temperature not restated for kinetics"}, "purified protein [2]": {"substrate": "O=[N+]([O-])c1ccc(O[C@@H]2O[C@H](CO)[C@@H](O)[C@H](O)[C@H]2O)cc1", "assay": "purified protein", "assay_type": "biochemical, Limosilactobacillus mucosae", "conditions": "free enzyme; 0.1 to 10 mmol L^−1 substrate; pH and temperature not restated for kinetics"}, "purified protein [3]": {"substrate": "C[C@H]1O[C@@H](Oc2ccc([N+](=O)[O-])cc2)[C@H](O)[C@@H](O)[C@H]1O", "assay": "purified protein", "assay_type": "biochemical, Limosilactobacillus mucosae", "conditions": "free enzyme; 0.1 to 10 mmol L^−1 substrate; pH and temperature not restated for kinetics"}, "purified protein [4]": {"substrate": "O=[N+]([O-])c1ccc(O[C@@H]2OC[C@@H](O)[C@H](O)[C@H]2O)cc1", "assay": "purified protein", "assay_type": "biochemical, Limosilactobacillus mucosae", "conditions": "free enzyme; 0.1 to 10 mmol L^−1 substrate; pH and temperature not restated for kinetics"}, "purified protein [5]": {"substrate": "O=[N+]([O-])c1ccc(O[C@@H]2O[C@H](CO)[C@H](O)[C@H](O)[C@H]2O)cc1", "assay": "purified protein", "assay_type": "biochemical, Limosilactobacillus mucosae", "conditions": "free enzyme; 0.1 to 10 mmol L^−1 substrate; pH and temperature not restated for kinetics"}},
  "data": [
    {"molecule": "OC[C@H]1OC(O)[C@H](O)[C@@H](O)[C@@H]1O", "note": "(stereo partly drawn) [glucose]", "values": [
      {"measurement": "Relative activity (%)", "setting": "GluLm", "result": "48.3 ± 5.7", "unit": "%"}
    ]},
    {"molecule": "B1", "values": [
      {"measurement": "Km", "setting": "purified protein [1]", "result": "2820 ± 240", "unit": "µM"},
      {"measurement": "Vmax", "setting": "purified protein [1]", "result": 0.06, "unit": "µmol/min"},
      {"measurement": "kcat", "setting": "purified protein [1]", "result": 7.8, "unit": "s⁻¹"},
      {"measurement": "kcat/Km", "setting": "purified protein [1]", "result": 2700, "unit": "M⁻¹ s⁻¹"},
      {"measurement": "Km", "setting": "purified protein [2]", "result": "100 ± 10", "unit": "µM"},
      {"measurement": "Vmax", "setting": "purified protein [2]", "result": 33.8, "unit": "µmol/min"},
      {"measurement": "kcat", "setting": "purified protein [2]", "result": 9120, "unit": "s⁻¹"},
      {"measurement": "kcat/Km", "setting": "purified protein [2]", "result": "8.66e+07", "unit": "M⁻¹ s⁻¹"},
      {"measurement": "Km", "setting": "purified protein [3]", "result": "1030 ± 40", "unit": "µM"},
      {"measurement": "Vmax", "setting": "purified protein [3]", "result": 1.64, "unit": "µmol/min"},
      {"measurement": "kcat", "setting": "purified protein [3]", "result": 223, "unit": "s⁻¹"},
      {"measurement": "kcat/Km", "setting": "purified protein [3]", "result": 218000, "unit": "M⁻¹ s⁻¹"},
      {"measurement": "Km", "setting": "purified protein [4]", "result": "760 ± 50", "unit": "µM"},
      {"measurement": "Vmax", "setting": "purified protein [4]", "result": 4.07, "unit": "µmol/min"},
      {"measurement": "kcat", "setting": "purified protein [4]", "result": 552, "unit": "s⁻¹"},
      {"measurement": "kcat/Km", "setting": "purified protein [4]", "result": 729000, "unit": "M⁻¹ s⁻¹"},
      {"measurement": "Km", "setting": "purified protein [5]", "result": "2810 ± 180", "unit": "µM"},
      {"measurement": "Vmax", "setting": "purified protein [5]", "result": 0.86, "unit": "µmol/min"},
      {"measurement": "kcat", "setting": "purified protein [5]", "result": 117, "unit": "s⁻¹"},
      {"measurement": "kcat/Km", "setting": "purified protein [5]", "result": 41900, "unit": "M⁻¹ s⁻¹"}
    ]}
  ]
}
